# Source: patent publication CN109678958A (CHONGQING BIOMEAN TECH CO LTD, dated 2019)
# T1: 重组人NT-proBNP (recombinant human N-terminal pro-brain natriuretic peptide, bought from 重庆探生科技有限公司) (human, UniProt P16860 27-102)
# T1 construct: also called NT-proBNP校准品; 人脑钠肽原N端肽
# T1 sequence (looked up): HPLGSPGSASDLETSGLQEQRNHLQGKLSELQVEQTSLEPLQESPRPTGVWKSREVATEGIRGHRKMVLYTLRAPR
# Target: T1, 重组人NT-proBNP (recombinant human …)
# Test: phage ELISA, NT-proBNP coated, HRP anti-phage antibody, A450
binder,measurement,value
"人NT-proBNP特异性羊单链抗体scFv, displayed on phage (clone of the third round of panning) (scFv, The phage coat fusion partner is not described; also called 单克隆噬菌体) scFv: MALSQVRLQESGPSLVKPSQTLSLTCTVSGPSLTDYDVDWVRQAPGKALEWLGFINQGAPTGYDPALKSRLSITRDTSKSQVSLSLSSMTAEDTAVYYCARGAILGWGRGLLVTVSSQGSTSGSGKPGSGEGSTKGGQAVLTQPASVSGSPGQTVTISCTGTSGDIAGYNLVGWYQQLPNSAPKTLIYDVSTRRSGIPARFSGSKSGNTATLTISGLQAEDEADYYCSTSISANSVGFGSGTRLTVLGQPKSAPS",binding result,binds
